The text below walks through data of patent publication US5001064A, “Phosphatidylinositol 4-kinase” (Washington University, priority 1988, dated 1991).

Substrate in the data set: Nc1ncnc2c1ncn2[C@@H]1O[C@H](COP(=O)(O)OP(=O)(O)OP(=O)(O)O)[C@@H](O)[C@H]1O
The data set is described as follows: PtdIns 4-kinase activity assay: kinetic parameters, specific activity, pH optimum. It is filed as biochemical, bovine. Conditions: other: purified enzyme, pH 7.4 (Tris-HCl), double-reciprocal plot, 30.0 °C. The protocol:
PtdIns 4-kinase activity was assayed in 60 μl at 30° C. in 20 mM BisTris-HCl (pH 7.0), 10 mM MgCl2, 1.0% Triton X-100, 0.25 mg/ml phosphatidylinositol, and 150 μM ATP (1.25 μCi[-^32 P]ATP), unless otherwise noted. The reaction was terminated by the addition of 12 μl of cold HCl, 120 μl of cold methanol, 150 μl of chloroform, and 40 μl of H2 O. The extracted samples were centrifuged at 12,000 × g for 1 min. and the aqueous layer removed and discarded. When needed, the organic phase was washed with 40 μl of cold methanol and 40 μl of cold 1.0 N HCl, centrifuged at 12,000 × g, and the aqueous layer was removed. The organic phase was then dried under vacuum in a Savant speed-vac, resuspended in 40 μl of chloroform/methanol (2:1), and chromatographed on potassium oxalate-impregnated Silica Gel 60 thin layer chromatography plates (TLC). The solvent system used consisted of chloroform/methanol/ammonium hydroxide/water (51:39.6:3:8.4). […] The reaction product, phosphatidylinositol 4-phosphate, was visualized by autoradiography, and the corresponding area of the TLC plate was scraped and quantitated by Cherenkov counting. […]
In order to optimize the assay of this enzyme, the pH optimum for Ptdlns 4-kinase was determined. […]

B1: PtdIns 4-kinase (Bos taurus) (protein)
chain: MDETSPLVSPERAQPPDYTFPSGSSAHFPQVPGGAVRVAAAAGPVSSPPGSPGHDRERQPLLDRARGAAAQGQTQTVAAQAQALAAQAAAAAHAAQAHRERNEFPEDPEFEAVVRQAELAIERGIFPERIYQGSSGSYFVKDPQGKIIAVFKPKNEEPYGQLNPKWTKWLQKLCCPCCFGRDCLVLNQGYLSEAGASLVDQKLELNIVPRTKVVYLASETFNYSAIDRVKSRGKRLALEKVPKVGQRFNRIGLPPKVGSFQLFVESYKDADYWLRRFEAEPLPENTNRQLLLQFERLVVLDYIIRNTDRGNDNWLIKYDCPMDSSNSRDTDWVVVKEPVIKVAAIDNGLAFPLKHPDSWRAYPFYWAWLPQAKVPFSQEIKDLILPKISDPNFVKDLEEDLYELFKKDPGFDRGQFHKQIAVMRGQILNLTQALKDNKCPLHLVQMPPVIVETARSHQRSSSESYTQSFQSRKPFFSWW
notes: It constitutes the major PtdIns 4-kinase activity of bovine uteri; from tissue; host or cells: bovine uterus (acetone powder, purified over ammonium sulfate, Mono Q, S-Sepharose, Mono Q, Mono P and hydroxylapatite)
Take B1: the Michaelis constant (Km) came out at 18 µM.
